Reference: patent US20200215180A1

Tests used:
[1] = target: Hyperglycosylated Zika exodomain (HX), insect (Tni) cell expressed (Zika virus); assay: ELISA
[2] = target: Hyperglycosylated dengue-1 exodomain (HX), insect (Tni) cell expressed (dengue virus serotype 1) (UniProt P27909); assay: ELISA
[3] = target: Hyperglycosylated exodomain Zika (from pCRO28), HEK293-expressed (Zika virus); assay: ELISA
[4] = target: Hyperglycosylated exodomain D1 (from pCRO21), HEK293-expressed (dengue virus serotype 1) (UniProt P27909); assay: ELISA
[5] = target: Hyperglycosylated dengue-2 exodomain (HX), insect (Tni) cell expressed (dengue virus serotype 2) (UniProt P18356); assay: ELISA
[6] = target: Hyperglycosylated dengue-3 exodomain (HX), insect (Tni) cell expressed (dengue virus serotype 3) (UniProt Q6YMS4); assay: ELISA
[7] = target: Hyperglycosylated exodomain D3 (from pCRO23), HEK293-expressed (dengue virus serotype 3) (UniProt Q6YMS4); assay: ELISA
[8] = target: Hyperglycosylated dengue-4 exodomain (HX), insect (Tni) cell expressed (dengue virus serotype 4) (UniProt P09866); assay: ELISA
[9] = target: Hyperglycosylated exodomain D2 (from pCRO22), HEK293-expressed (dengue virus serotype 2) (UniProt P18356); assay: ELISA
[10] = target: wild-type insect cell expressed Zika exodomain antigen (Zika virus); assay: ELISA
[11] = target: Hyperglycosylated exodomain D4 (from pCRO24), HEK293-expressed (dengue virus serotype 4) (UniProt P09866); assay: ELISA
[12] = target: VLPs; assay: competition ELISA, 4G2 in solution phase at 10 micrograms per ml

Substance	absorbance [1] [absorbance]	absorbance [2] [absorbance]	absorbance [3] [absorbance]	absorbance [4] [absorbance]	absorbance [5] [absorbance]	absorbance [6] [absorbance]	absorbance [7] [absorbance]	absorbance [8] [absorbance]	absorbance [9] [absorbance]	absorbance [10] [absorbance]	absorbance [11] [absorbance]	% inhibition [12] [%]
ZV48 anti-Zika neutralizing antibody (The Native Antigen Company MAB12124)	1.1	0	1.2	0	0	0	0	0	0	1.1	0	
Aalto Bioreagents anti-Zika antibody AZ1176-0302156-Lot3889	2	0.2	3.1	0.1	0.1	0.3	0.1	0.1	0.1	1	0.1	
ZKA64 (antibody)	0.7	0.2	0.9	0.1	0.2	0.2	0.1	0.1	0.1	0.8	0.1	
ZV67 anti-Zika neutralizing antibody (The Native Antigen Company MAB12125)	1.5	0.1	1.1	0.1	0.1	0.1	0	0.1	0	1.2	0	
ZKA78 (antibody)	0	0	0	0	0	0	0	0	0	1.4	0	
fusion-loop antibody 4G2 (The Native Antigen Company AbFLAVENV-4G2)	0.1	0.1	0.1	0.1	0.1	0.1	0.1	0.1	0.1	0.9	0.1	80
